Substrate: CC(C)=CCC/C(C)=C/COP(=O)(O)OP(=O)(O)O
Experiment: purified protein, by the assay type
Conditions: other: purified wildtype RhNUDX1, this study; pH 8.0

B1: Rosa hybrida (Rosa hybrid cultivar) RhNUDX1, GPP phosphohydrolase, wildtype, UniProt JQ820249, SEQ ID NO: 14 (Rosa hybrid cultivar) (protein)
chain: MGNETVVVAETAGSIKVAVVVCLLRGQNVLLGRRRSSLGDSTFSLPSGHLEFGESFEECAARELKEETDLDIGKIELLTVTNNLFLDEAKPSQYVAVFMRAVLADPRQEPQNIEPEFCDGWGWYEWDNLPKPLFWPLDNVVQDGFNPFPT
- Km: 46.4 ± 4.4 µM
- kcat: 0.36 s⁻¹
- kcat/Km: 7747 ± 1736 M⁻¹ s⁻¹

From patent US20250188479A1
